Laboratory results as given in the supplement of paper PMC9170038.

System: MS2 coat protein
Test: apparent KD of MS2 coat protein; designed switch direction (-1 OFF switch, 1 ON switch): -1; higher = weaker reporter binding
Summary of the method: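 RNA switches sharing common flanks were transcribed by stalled E. coli RNA polymerase on Illumina chips. A doubling series of SNAP-549-labelled MS2 coat protein, from 0.7 or 1.5 nM to 3 µM, was applied in Tris-HCl pH 7.5 buffer with KCl, MgCl2, BSA, DTT, tRNA and Tween-20. Each step lasted 0.8–1.5 h at the bottom of the series and 10–20 min at the top. Normalised cluster fluorescence was curve-fitted, giving apparent KD as the per-design median over clusters.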

[1] = Eterna round: R95, input ligand: microRNA oligo, concentration not stated
[2] = Eterna round: R95, input ligand: FMN 200 uM
[3] = Eterna round: R95, input ligand: none
[4] = input ligand: microRNA oligo, concentration not stated

Row | Sequence | apparent KD of MS2 coat protein [1] | apparent KD of MS2 coat protein [2] | apparent KD of MS2 coat protein [3] | apparent KD of MS2 coat protein (input ligand: FMN 200 uM) | apparent KD of MS2 coat protein [4] | apparent KD of MS2 coat protein (input ligand: none)
1 | UUUUUGUCAGGAUAUACGUAGUAGAACAAUAGUACUACUACGUAGAAGGGACAUGAGGAUCACCCAUGUUCCUC [Fiskers Ex 4 Super stable 44 mod 16] (puzzle: Exclusion 4) | 16 nM | – | – | – | – | –
2 | GGAAUACAUGAGGAUCACCCAUGUAAGGAUAUGCUGAAUAUUACGGAAUAAACGUGCAGCAGAAGGUACAAAGG [Mat - Mod of my Eli Mod D47] (puzzle: Exclusion 1) | 83.4 nM | 105 nM | 125 nM | – | – | –
3 | AAUAAACAUGAGGAUCACCCAUGUCAGGAUAUCCAUUUGUUUUUGUUGGUUUUUUUUUGGAGAAGGGACGCUUA [Lollin - Alpha 1] (puzzle: Exclusion 1) | 58.1 nM | – | – | – | – | –
4 | UACAUGAGGAUCACCCAUGUUUUGUCGUGUAUGGUAUUUAUCUAGGAUAUCAAUCUAUUUAUGUAUGAGAAGGAGAAUAUUAAU [JMF's solution 55] (Eterna round: R96, puzzle: Exclusion NG 3) | – | – | – | 42.3 nM | 28.9 nM | 41.1 nM
5 | GAACUCGUGAAGGAUAUCCGUACCAAAGCGGCAGGAGAAGGUCACACAUGAGGAUCACCCAUGUGGUACCUCGU [Xeinbira] (Eterna round: R96, puzzle: Exclusion 6) | – | – | – | – | 23.6 nM | –
6 | AUUUAAUUUAAUAAGAUCACAUGAGGAUCACCCAUGUUAUAAUAGGAUAUCAGCUCGUGUAGAGCUGAGAAGGAUUAUAACAUG [ExNG3/9-A3] (Eterna round: R96, puzzle: Exclusion NG 3) | – | – | – | – | 22.2 nM | –
7 | UUUUAACAUGAGGAUCACCCAUGUGAGGAUAUCCUAUUUUUUUUUUUUUUUUUUUUUUGGAGAAGGCACAUUUU [My solution] (puzzle: Exclusion 1) | 38.3 nM | 23.1 nM | 7.45 nM | – | – | –
8 | GAUCACUGAGGAUAUACACAGAUACAAAGUAUCUGAUGGUGACAUGAGGAUCACCCAUGUAGAAGGCAGAGGUC [Omei Ex2 B7] (Eterna round: R97, puzzle: Exclusion 2) | – | – | – | 290 nM | – | 495 nM
9 | ACUCAGUCAGGAUAUCAAUCCGCCUGUGAUACGCAGGCGGCUGAGAAGGGACAUGAGGAUCACCCAUGUAAAGA [jl-ex4-4.18 ViennaUCT mod] (Eterna round: R97, puzzle: Exclusion 4) | – | – | – | 538 nM | – | 129 nM
10 | AGUGGGCGCGUAGGAUAUGAGGAUCACCCAUAGAAGGAUAUCGAAAGAGAAGGUCUGAGGAUUACCCAGAAGGACGGGUUUGUA [pwkr exNG2 2xF5 2xFMN.15] (Eterna round: R96, puzzle: Exclusion NG 2) | – | – | – | 925 nM | 278 nM | 232 nM
11 | GCACCACGAGGAUAUACAUGAGGAUCACCCAUGUGAUCAGCAGUCCUCGGACUGCAAUGUAGAAGGCGUGGUGC [E3/1-A1] (Eterna round: R97, puzzle: Exclusion 3) | – | – | – | 24.3 nM | – | 776 nM
12 | UAUAUAUAGUAAGGAUAUGUAUUAAUUUUAGAAACAGAAGGUACUGACAUGAGGAUCACCCAUGUUUUAGUGUGGGCAUGUAGA [JMF's solution 88] (Eterna round: R96, puzzle: Exclusion NG 1) | – | – | – | – | 75.7 nM | –
13 | UGCUAGUCAGGAUAUACGAACAUGUCAAAAGACGUGAAGGGACAUGAGGAUCACCCAUGUAGAAGGGACUAGCU [salish99_ex2_r3_006] (puzzle: Exclusion 2) | 25.2 nM | 165 nM | 27.1 nM | – | – | –
14 | CUAGAUCUUCGGAUCUAGUACAUGAGGAUCACCCAUGUGACGAGUAGAUCCUCAAACAAGCUUUUUGCUCGUCUUAU [Sensor v3 - Turn-off variant 1 - 20] (puzzle: Sensor v3, turn-off variant 1) | 9.51 nM | 43.3 nM | 111 nM | – | – | –
15 | GGAAGAGAGUUAGGAUAUAUAAGAAGAAUGUGGGUAGAAGGAACGAAACAUGAGGAUCACCCAUGUCCCAUGUUGAGGAGGAGG (Eterna round: R96, puzzle: Exclusion NG 1) | – | – | – | 1530 nM | 349 nM | 560 nM
16 | CUUGUUUAUGUAGGAUAUGCCUGGCGUGCCUUUGCAGAAGGACAUGAGGAUCACCCAUGUAACAUGAGGCUCACCCAUGUCGCU [salish99_ExNG1_r04_106] (Eterna round: R96, puzzle: Exclusion NG 1) | – | – | – | 434 nM | 224 nM | 292 nM
17 | GUCAGACGAGGAUAUGAUCAAUAAUACAUGAGGAUCACCCAUGUAAUACUGAUCCAUGGAUCAGAAGGCGUCUGAC [E5/5-A4] (Eterna round: R97, puzzle: Exclusion 5) | – | – | – | 23.4 nM | – | 15.4 nM

Row | Sequence | apparent KD of MS2 coat protein [1] | apparent KD of MS2 coat protein [2] | apparent KD of MS2 coat protein [3] | apparent KD of MS2 coat protein (input ligand: FMN 200 uM) | apparent KD of MS2 coat protein [4] | apparent KD of MS2 coat protein (input ligand: none)
18 | GCACGGUGAGGAUAUAUAAAUGGGCAUGUCGAGAACCGUUCACAUGAGGAUCACCCAUGUAGAAGGCGCCUGUG [Eternabot (L2) Solution 58] (Eterna round: R97, puzzle: Exclusion 2) | – | – | – | 115 nM | – | 49 nM
19 | CGGUCCUGAGUGAGGAUAUUGUCAGGCGAAGCCUGCAAGAAGGUACUUGAGGAUCACCCAAGUACGCUCUUGGC [Estimama] (Eterna round: R97, puzzle: Brourd's mod of Exclusion 4) | – | – | – | 21.2 nM | – | 16.8 nM
20 | UACACUGCAUGAGGAUCAAACAUGAGGAUCACCCAUGUAUAGCAAGCUUUUUGCACGUCUUAUAAUUAUGUAGUGUA [Electric Eye 13 - Jieux - Sensor, turn-off variant 1] (Eterna round: R97, puzzle: Sensor, turn-off variant 1) | – | – | – | 15.1 nM | – | 16.2 nM
21 | CUAGAGUGAGGAUAUACGAGAUCGAAAGAUCGGCGAUCCCUACAUGAGGAUCACCCAUGUAGAAGGCACUCUAG [Mod 12 - Jieux - Exclusion 2] (Eterna round: R97, puzzle: Exclusion 2) | – | – | – | 115 nM | – | 16 nM
22 | GCAGGUUAAGUCAGGAUAUACCUAUGGAUACAUAGGUAGAAGGGACAUGAGGAUCACCCAUGUUUCUCAUCUGC [Mod of Eli 2 - Jieux - Brourd's mod of Exclusion 4] (Eterna round: R97, puzzle: Brourd's mod of Exclusion 4) | – | – | – | 61.5 nM | – | 21.7 nM
23 | CGAGUGUAAGGAUAUUCGGCGCCAGAGAACGAUCUGACGUAGAAGAAGGUACAUGAGGAUCACCCAUGUGGUUA [Geinzarace] (puzzle: Exclusion 4) | 102 nM | 41.6 nM | 204 nM | – | – | –
24 | UUUUUACAUGAGGAUCACCCAUGUCAGGAUAUGCUUAUAUUUUAUUAUUUUAUUUUUUGCAGAAGGGACUAUUA [My solution] (Eterna round: R96, puzzle: Exclusion 1) | – | – | – | 130 nM | 80.4 nM | 118 nM
25 | GGCAGACAUGAGGAUCACCCAUGUCAGGAUAUGGUGCGAUCGUCGAUAGACGAUAGCACCAGAAGGGACAUGCC [Mat - Exclusion 1 - Eli Mod - D3] (Eterna round: R97, puzzle: Exclusion 1) | – | – | – | 39.7 nM | – | 21.4 nM
26 | UAGAUACAUGAGGAUCACCCAUGUGAGGAUAUGAGGGUUAGCUUAAAUGGGCUGACUUUCAGAAGGCACAAGAA [JR_Ex1_Sub057] (Eterna round: R97, puzzle: Exclusion 1) | – | – | – | 94.7 nM | – | 43 nM
27 | UUUUUACAUGAGGAUCACCCAUGUCAGGAUAUGCUUAUAUUUUAUUAUUUUAUUUUUUGCAGAAGGGACUAUUA [My solution] (puzzle: Exclusion 1) | 80 nM | – | – | – | – | –
28 | AGAGACCGAGGAUAUCCCAGAACUCACAUGAGGAUCACCCAUGUGUAGAUUGGGUGUCACGGAGAAGGCGGAUCGC [EX5 C.21] (Eterna round: R97, puzzle: Exclusion 5) | – | – | – | 14 nM | – | 13.8 nM
29 | GAGGUGUUAGGAUAUCGGAGAUGGAGAAGAACGGGAUGAGCCGAGAAGGAACAUGAGGAUCACCCAUGUAGGUG [JR_Exclu4_Sub031] (puzzle: Exclusion 4) | 420 nM | 415 nM | 553 nM | – | – | –
30 | UUUAAUUGUCACAUGGGUGACAUGAGGAUCACCCAUGUCACAAGCUUUUUGCUCGUCUUAUAAUUAACCCAUGUGAC [Stov1/12-A1] (Eterna round: R97, puzzle: Sensor, turn-off variant 1) | – | – | – | 13.4 nM | – | 13.7 nM
31 | GGUGAGCUAGGAUAUGCUUUGGGCUCGCUUUCCUUCGUUUUACUUGAGGAUCACCCAAGUAGAAGGAGCUUGCC [salish99_ex2_r4_036] (Eterna round: R97, puzzle: Exclusion 2) | – | – | – | 13.9 nM | – | 12.2 nM
32 | AGUACUAUCGCGAAAGCGAUAGUACAAAAAGCAAGUGAAACAUGAGGAUCACCCAUGUCCUCAUUUGCUCGUCUUAU [Mat - Sensor v2 -ver2- JL mod - D89] (Eterna round: R96, puzzle: Sensor v2, turn-off variant 2) | – | – | – | 12.1 nM | 390 nM | 14.3 nM
33 | UCUGCCGCUGUGAGGAUAUGCCCAAAUAAAAGCGGGCAGAAGGCACAUGAGGAUCACCCAUGUCCUGCGGUUUU [salish99_bmx4_r4_143] (Eterna round: R97, puzzle: Brourd's mod of Exclusion 4) | – | – | – | 180 nM | – | 28.8 nM
34 | GGUCAGCUAGGAUAUACAUGAGGAUCACCCAUGUACUGACCCAUGCGGGAAUCCGCGUGUAGAAGGAGCAAAAG [jl-ex3-4.60 ViennaUCT mod] (Eterna round: R97, puzzle: Exclusion 3) | – | – | – | 33 nM | – | 32.5 nM
